Target: His-SUMO-WDR5(22–334) (human, UniProt P61964 22-334)
Assay: AlphaScreen or HTRF

B1: 10-mer-Thr-FAM (ARTEVHLRKS-(Ahx-Ahx)(Lys-(5-FAM))) (peptide)
peptide: ARTEVHLRKS
binding result: binds

— article PMC6448596 (Cell reports, 2019)
